Assay [1] has as its target cynomolgus monkey CD3 expressed on monkey T-cells (PBMCs) (cynomolgus monkey, UniProt Q95LI5 22-198; Q95LI8 22-171). Nature of the assay: cell-based or functional assay.
Assay [2] addresses T1, human CD3 expressed on cells (Jurkat cells; human T-cells of PBMC) (human, UniProt P09693 23-182; P20963 22-164).
T1 construct: whole, on cells; Native CD3 on the cell surface; also called hPBMC
The experiment in a line: FACS titration on Jurkat cells (CD3+ human T-cell line). The procedure:
FACS data was acquired using the following protocol: Cells at 2×10⁵ per well were incubated with serially diluted antibodies for 30 min on ice. Post incubation, cells were washed and secondary antibody was added and incubated for an additional 30 minutes. After incubation, cells were washed, re-suspended in cold PBS containing 1% BSA and analyzed by flow cytometry with viable Jurkat cells gated by side and forward scatters. The EC₅₀s for cell binding titration were determined using Prism software with values calculated using a 4-parameter non-linear regression analysis.

In assay [3] the target is T1, human CD3 expressed on cells (Jurkat …). Nature of the assay: cell-based or functional assay.
The target is the same in assay [4]. Nature of the assay: cell-based or functional assay. The source holds these as a separate data set.
The target in assay [5] is T2, human CD3 on CD3-expressing cells (Jurkat, human T cells) (human, UniProt P07766 23-207; P04234 22-171).
T2 construct: On cells CD3 stands within the T cell receptor complex (also gamma and zeta chains); also called human CD3 expressing Jurkat cells
The experiment in a line: FACS on Jurkat cells. The procedure:
(§1) Briefly, 2×10⁵ cells/well of human CD3-expressing Jurkat, cynomolgus T, or human PSMA-specific expressing cells were incubated with a serial dilution of bispecific antibodies for 30 min at 4° C. After incubation, cells were washed and a goat F(ab′)₂ anti-human Fcγ PE labeled secondary (Jackson Immunolabs) was added to the cells for an additional 30 min. Next, cells were washed, re-suspended in cold PBS+1% BSA and analyzed via flow cytometry on a BD FACS Canto II.
(§2) For FACS analysis, cells were gated by forward scatter height vs. forward scatter area for single events selection, followed by side and forward scatters. The EC₅₀ for cell binding titration was determined using Prism software. Values were calculated using 4-parameter non-linear regression analysis.

The target in assay [6] is T3, human PSMA on PSMA-expressing cells (human, UniProt Q04609 1-750). Nature of the assay: cell-based or functional assay.
Assay [7] has as its target T2, human CD3 on CD3-expressing cells …. The experiment in a line: cell-based or functional assay.
For assay [8], the target named is T3, human PSMA on PSMA-expressing cells. Nature of the assay: FACS on B16F10.9/PSMA cells. As to the method: as §1, §2
For assay [9], the target named is T4, soluble heterodimeric hCD3ε/δ.mFc protein (human).
T4 construct: also called soluble human CD3; soluble heterodimeric CD3 protein
T4 chain 1: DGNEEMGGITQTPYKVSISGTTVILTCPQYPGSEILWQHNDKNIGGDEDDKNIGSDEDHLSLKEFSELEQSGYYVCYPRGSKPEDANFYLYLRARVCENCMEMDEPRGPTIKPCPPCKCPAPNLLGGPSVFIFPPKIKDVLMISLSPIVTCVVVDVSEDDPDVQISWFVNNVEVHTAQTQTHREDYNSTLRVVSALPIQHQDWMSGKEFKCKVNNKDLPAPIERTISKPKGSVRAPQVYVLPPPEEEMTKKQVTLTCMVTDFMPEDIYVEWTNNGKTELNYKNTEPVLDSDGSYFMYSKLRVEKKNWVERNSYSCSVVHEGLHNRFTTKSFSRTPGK
T4 chain 2: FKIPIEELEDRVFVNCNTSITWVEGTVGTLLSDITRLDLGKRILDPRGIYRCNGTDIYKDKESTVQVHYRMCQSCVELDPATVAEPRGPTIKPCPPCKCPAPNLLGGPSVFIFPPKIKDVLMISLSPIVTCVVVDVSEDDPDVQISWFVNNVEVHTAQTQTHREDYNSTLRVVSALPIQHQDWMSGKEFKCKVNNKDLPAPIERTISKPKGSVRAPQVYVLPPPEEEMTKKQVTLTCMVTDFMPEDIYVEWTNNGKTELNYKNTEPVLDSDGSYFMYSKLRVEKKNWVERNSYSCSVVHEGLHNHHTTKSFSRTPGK
Nature of the assay: SPR MASS-1, 37 C, antigen-capture (hCD3ε/δ.mFc captured), antibody injected. The procedure:
Measurements were conducted on a Sierra Sensors MASS-1 instrument.
In the antigen-capture format, the MASS-1 high-density amine sensor surface was derivatized with a goat anti-mouse IgG2a polyclonal antibody (Southern Biotech). Soluble heterodimeric CD3 protein was captured and the respective antibodies were injected over the captured antigen.
Kinetic association (kₐ) and dissociation (kd) rate constants were determined by processing and fitting the data to a 1:1 binding model using MASS-1 AnalyserR2 curve fitting software. Binding dissociation equilibrium constants (KD) and dissociative half-lives (t_{1/2}) were calculated from the kinetic rate constants as: KD (M)=kd/kₐ; and t_{1/2} (min)=(ln 2/(60*kd).

Changes are numbered by the printed parent chain.

Sequence of cynomolgus monkey CD3 expressed on monkey T-cells (PBMCs) (Q95LI5 22-198, chain 1 of 2): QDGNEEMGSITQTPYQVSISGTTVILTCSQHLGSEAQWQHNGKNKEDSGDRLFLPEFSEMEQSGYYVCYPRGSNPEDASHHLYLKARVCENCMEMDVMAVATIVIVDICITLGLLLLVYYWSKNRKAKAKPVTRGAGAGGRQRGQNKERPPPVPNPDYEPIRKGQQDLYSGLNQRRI
Sequence of cynomolgus monkey CD3 expressed on monkey T-cells (PBMCs) (Q95LI8 22-171, chain 2 of 2): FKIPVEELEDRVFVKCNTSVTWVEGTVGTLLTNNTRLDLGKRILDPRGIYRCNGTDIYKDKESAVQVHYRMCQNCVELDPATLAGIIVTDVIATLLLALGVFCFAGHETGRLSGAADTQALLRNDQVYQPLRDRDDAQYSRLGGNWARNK
T2 sequence (P07766 23-207 limits assumed, chain 1 of 2): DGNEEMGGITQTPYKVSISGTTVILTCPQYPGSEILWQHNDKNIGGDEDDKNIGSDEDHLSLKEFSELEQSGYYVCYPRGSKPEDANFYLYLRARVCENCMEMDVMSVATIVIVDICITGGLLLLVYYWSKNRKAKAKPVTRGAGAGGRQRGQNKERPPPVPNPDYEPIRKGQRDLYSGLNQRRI
T2 sequence (P04234 22-171 limits assumed, chain 2 of 2): as the sequence (Q95LI8 22-171, chain 2 of 2) above, with V5I, K15N, V20I, T32S, N33D, N34I, A64T, N74S, L83V, R141H counted along it
T1 sequence (chain, as listed by the source, chain 1 of 4): as the sequence (P07766 23-207 limits assumed, chain 1 of 2) above
T1 sequence (chain, as listed by the source, chain 2 of 4): as the sequence (Q95LI8 22-171, chain 2 of 2) above, with V5I, K15N, V20I, T32S, N33D, N34I, A64T, N74S, L83V, R141H counted along it
T1 sequence (P09693 23-182, chain 3 of 4): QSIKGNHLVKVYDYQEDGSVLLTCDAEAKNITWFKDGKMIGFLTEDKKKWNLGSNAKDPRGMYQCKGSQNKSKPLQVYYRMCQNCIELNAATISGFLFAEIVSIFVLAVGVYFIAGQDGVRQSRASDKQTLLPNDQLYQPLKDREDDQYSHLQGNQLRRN
T1 sequence (P20963 22-164, chain 4 of 4): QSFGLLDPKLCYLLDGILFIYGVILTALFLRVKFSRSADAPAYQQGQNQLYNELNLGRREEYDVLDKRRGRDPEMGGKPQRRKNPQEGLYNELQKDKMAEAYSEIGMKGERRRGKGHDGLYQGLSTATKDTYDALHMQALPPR
T3 sequence (Q04609 whole entry): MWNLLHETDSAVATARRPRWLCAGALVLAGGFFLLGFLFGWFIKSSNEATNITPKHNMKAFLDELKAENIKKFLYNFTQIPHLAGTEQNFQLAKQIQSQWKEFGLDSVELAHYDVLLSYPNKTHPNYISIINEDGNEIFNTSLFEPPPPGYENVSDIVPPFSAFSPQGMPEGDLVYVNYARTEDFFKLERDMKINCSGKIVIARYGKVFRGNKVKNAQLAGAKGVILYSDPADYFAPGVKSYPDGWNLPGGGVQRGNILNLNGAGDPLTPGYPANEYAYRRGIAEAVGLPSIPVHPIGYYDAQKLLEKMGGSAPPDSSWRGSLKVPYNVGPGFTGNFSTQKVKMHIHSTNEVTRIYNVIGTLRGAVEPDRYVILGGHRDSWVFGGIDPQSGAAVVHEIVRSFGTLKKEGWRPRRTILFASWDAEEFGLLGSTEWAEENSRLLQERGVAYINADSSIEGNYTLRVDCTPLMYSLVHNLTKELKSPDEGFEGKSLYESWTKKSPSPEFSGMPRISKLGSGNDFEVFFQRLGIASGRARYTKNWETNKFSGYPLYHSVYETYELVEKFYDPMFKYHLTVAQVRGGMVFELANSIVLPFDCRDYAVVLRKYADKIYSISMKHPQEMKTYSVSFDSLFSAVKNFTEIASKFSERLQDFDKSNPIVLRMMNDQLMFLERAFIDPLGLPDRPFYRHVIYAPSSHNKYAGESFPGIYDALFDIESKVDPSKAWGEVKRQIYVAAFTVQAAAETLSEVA

B1: H1H5761P (antibody, human IgG1, V domains shown)
VH: QVQLVESGGGVVQPGRSLRLSCAASGFTFSSYGMHWVRQAPGKGLEWVAVISYDGSNKYYADSVKGRFTISRDYSKNTLYLQMNSLRAEDTAVFYCAKGAMVRGVPYNYYYGMDVWGQGTTVTVSS
VL: DIQMTQSPSSLSASVGDRVTITCRASQGIRNDLGWFQQKPGKAPKRLIYAASSLQSGVPSRFSGSGSGTEFTLTISSLQPEDFATYYCLQHNSYPYTFGQGTKLEIK
Consider B1, for which the “EC50 [M] mfPBMC Proliferation” value in assay [1] was 2.81e-09 M.

B2: H1H5764P (antibody, human IgG1, V domains shown)
VH: B1 VH with S30R, Y32F, S56N, N57Y, Y74N, F94H, Y109F
VL: B1 VL with G28V, F36Y, V58I
notes: H1H: human IgG1 Fc
B2 had a concentration for a half-maximal effect (EC50) in assay [2] of 880 pM. Further, the “EC50 [M] mfPBMC Proliferation” value in assay [1] amounted to 4.06e-10 M. Moreover, the “EC50 [M] hPBMC Proliferation” value in assay [3] amounted to 3.27e-13 M.

B3: H1H5778P (antibody, human IgG1, V domains shown)
VH: EVQLVESGGGLVQPGRSLRLSCVASGFTFADFTMHWVRQAPGKGLEWVSGISWNSNSIDYADSVKGRFTISRDNAKKSLFLQMSSLRAEDTALYYCVKDRSGYSRFYYGMDVWGQGTTVTVSS
VL: EIVMTQSPATLSVSPGERAILSCRASQNINSNLAWYQQKPGQAPRLLIYGASTRATGVPARFSGSGSGTEFTLTIRSLQSEDFAVYYCQQYYNWPITFGHGTRLEIK
notes: H1H: human IgG1 Fc
For B3, in [2], it took 685 pM to reach a half-maximal effect (EC50). Also, the “EC50 [M] mfPBMC Proliferation” value in [1] is 5.93e-13 M. Besides, the “U937 Cytotoxicity Human T-cells” value in [4] came to 0.341 pM. Moreover, in assay [3], the “EC50 [M] hPBMC Proliferation” value came to 5.04e-12 M.

B4: BSPSMA/CD3-900 (bispecific antibody, IgG4, V domains shown)
VH 1: QVQLVESGGGVVQPGRSLRLSCAASGFTFSSYGMHWVRQAPGKGLEWVAVISYAGNNKYYADSVKGRFTVSRDNSKKTLYLQMNSLRSEDTAVYYCAKDSYYDFLTDPDVLDIWGQGTMVTVSS
VH 2: EVQLVESGGGLVQPGRSLRLSCAASGFTFDDYSMHWVRQAPGKGLEWVSGISWNSGSKGYADSVKGRFTISRDNAKNSLYLQMNSLRAEDTALYYCAKDGSGYGKFYHYGLDVWGQGTTVTVSS
VL: DIQMTQSPSSLSASVGDSVTITCRASQSINNYLNWYQQKPGKAPKLLIYTASSLLSGVPSRFSGSGSGTDFTLTISGLHPEDFATYFCQQSFSTPPITFGQGTRLDIK
notes: modified (chimeric) IgG4 Fc domain; also called PSMA-VH-11810 x CD3-VH-G9
Turning to B4, in assay [5], the EC50 amounted to 274000 pM. Further, the “TrampC2.PSMA Cell depletion EC50” value in assay [6] was 3.5 pM. Moreover, the “T cell activation EC50” value in assay [7] turned out to be 1.12 pM. The same molecule displayed an EC50 in assay [8] of 1430 pM. Besides, in [9], the Kd was determined as 113000 pM, the “T½” value was found to be 2.3 min, the koff is 0.00495 s⁻¹ and the on-rate (kon) was 43800 M⁻¹ s⁻¹.

B5: BSPSMA/CD3-1000 (bispecific antibody, IgG4, V domains shown)
VH 1: B4 VH 1
VH 2: B4 VH 2 with D99Y, H108Y
VL: B4 VL
notes: modified (chimeric) IgG4 Fc domain; also called PSMA-VH-11810 x CD3-VH-G10
B5 displayed a concentration giving a half-maximal response (EC50) in [5] of 277000 pM. The “TrampC2.PSMA Cell depletion EC50” value in assay [6] was determined as 5.97 pM. Further, the “T cell activation EC50” value in assay [7] stood at 1.28 pM. The molecule also yielded a concentration for a half-maximal effect (EC50) in [8] of 1190 pM. In addition, in assay [9], binding was put at a Kd of 185000 pM, the “T½” value stood at 1.8 min, the koff amounted to 0.00637 s⁻¹ and the on-rate constant (kon) came to 34400 M⁻¹ s⁻¹.

B6: H1H5769P (antibody, human IgG1, V domains shown)
VH: EVQLVESGGGLVQPGRSLRLSCAASGFTFDDYTMHWVRQVPGKGLEWISGISWNSGSMDYADSVKGRFTISRDNARNSLFLQMNSVRTEDTALYYCAKDKSGYGSFYYGMDVWGQGTTVTVSS
VL: EIVLTQSPGTLSLSPGDRATLSCRASQSVSSIYLAWYQQKPGQAPRLLIHGASTRATGIPDRFSGSGSGTDFTLTISRLEPEDFAVYYCQQRAHSPYTFGQGTKLEIK
Regarding B6, the “EC50 [M] mfPBMC Proliferation” value in assay [1] amounted to 8.33e-13 M.

B7: H1H5781P (antibody, human IgG1, V domains shown)
VH: EVQLVESGGGLVQPGRSLRLSCAASGFTFDDFTMHWVRQAPGKGLEWVSDISWNSGSIDYADSVKGRFTISRDNARNSLFLQMSSLRTEDTASYYCIKDKSGYGSYNYGLDVWGQGTTVTVSS
VL: B6 VL with V86L, Q90H, A93V, H94S
notes: H1H: human IgG1 Fc
B7: the half-maximal effective concentration (EC50) in [2] came to 1230 pM. Besides, the “EC50 [M] mfPBMC Proliferation” value in assay [1] amounted to 7.92e-13 M. Moreover, the “U937 Cytotoxicity Human T-cells” value in assay [4] was found to be 1.83 pM. For the same molecule, the “EC50 [M] hPBMC Proliferation” value in assay [3] was determined as 6.08e-12 M.

B8: H1H5771P (antibody, human IgG1, V domains shown)
VH: EVQLVESGGGLVQPGRSLRLSCAASGFSFDNYAMHWVRQAPGQGLEWVSGISWNSGSRDYADSVKGRFTISRDNARNSLFLQMNSLSNEDTAMYYCAKDKSGYGSYFYGMDVWGQGTTVTVSS
VL: B6 VL with V29I, S30R, S31N, A93V, H94S, S95L
B8: in assay [1], the “EC50 [M] mfPBMC Proliferation” value amounted to 2.74e-12 M. For the same molecule, the “EC50 [M] hPBMC Proliferation” value in [3] was 6.35e-12 M.

B9: H1H5772S (antibody, human IgG1, V domains shown)
VH: B8 VH with E1Q, N31D, S55G, S87F, N88T, M93L
VL: B6 VL with T10I, V29I, S30R, S31N, A93V, H94S
notes: H1H: human IgG1 Fc; also called H1H5772P
Molecule B9 had a concentration giving a half-maximal response (EC50) in assay [2] of 664 pM. Moreover, the “EC50 [M] mfPBMC Proliferation” value in [1] came to 1.47e-12 M. For the same molecule, the “U937 Cytotoxicity Human T-cells” value in [4] is 0.689 pM. Further, the “EC50 [M] hPBMC Proliferation” value in assay [3] came to 4.42e-12 M.

B10: H1H5780P (antibody, human IgG1, V domains shown)
VH: B6 VH with T33A, V40A, I48V, S55G, M58K, A75T, F80S, V86L, T88I, M110L
VL: B6 VL with V29I, S30R, A93V, H94S
notes: H1H: human IgG1 Fc
In assay [2], B10 gave an EC50 of 762 pM. In addition, the “EC50 [M] mfPBMC Proliferation” value in assay [1] came out at 3.13e-13 M. For the same molecule, the “U937 Cytotoxicity Human T-cells” value in [4] is 4.03 pM. The “EC50 [M] hPBMC Proliferation” value in assay [3] is 3.44e-12 M.

B11: H1H5788P (antibody, V domains shown)
VH: EVQLVESGGGLVQPGRSLRLSCAASGFTFDDYTMHWVRQAPGKGLEWVSGISWNSGSIGYADSVKGRFTISRDNAKNSLYLQMNSLRAEDTALFYCAKDQSGYGHYYYGMDVWGQGTTVTVSS
VL: EIVMTQSPATLSVSPGERATLSCRASQSVSSNLAWYQQKPGQAPRLLIYGASTRATDIPARFSGSGSGTEFTLTISSLQSEDFAVYHCQQYNNWPLTFGGGTKVEIK
notes: H1H: human IgG1 Fc
B11 registered an EC50 in assay [2] of 3530 pM. Also, the “EC50 [M] mfPBMC Proliferation” value in [1] was found to be 2.01e-12 M. Further, in assay [4], the “U937 Cytotoxicity Human T-cells” value stood at 15.4 pM. Besides, the “EC50 [M] hPBMC Proliferation” value in assay [3] came to 4.62e-12 M.

(Values after patent publication US20190127480A1 (Regeneron, published 2019).)
